Where a chain is given by its changes, count along the chain named.
T1: FcγRIIa(H) extracellular domain, His-tagged (human, UniProt P12318 34-217)
T1 construct: extracellular domain; also called 2aH
T1 sequence: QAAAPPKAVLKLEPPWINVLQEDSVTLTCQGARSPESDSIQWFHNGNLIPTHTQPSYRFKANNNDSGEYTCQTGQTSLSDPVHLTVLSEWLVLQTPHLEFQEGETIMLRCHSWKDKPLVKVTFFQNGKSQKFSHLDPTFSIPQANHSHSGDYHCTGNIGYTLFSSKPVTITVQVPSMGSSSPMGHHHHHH

T2: FcγRIIa(R) extracellular domain, His-tagged (human, UniProt P12318 34-217)
T2 construct: extracellular domain; also called 2aR
T2 sequence: T1 sequence with H134R

T3: FcγRIIb extracellular domain, His-tagged (human, UniProt P31994 43-217)
T3 construct: extracellular domain; also called 2b
T3 sequence: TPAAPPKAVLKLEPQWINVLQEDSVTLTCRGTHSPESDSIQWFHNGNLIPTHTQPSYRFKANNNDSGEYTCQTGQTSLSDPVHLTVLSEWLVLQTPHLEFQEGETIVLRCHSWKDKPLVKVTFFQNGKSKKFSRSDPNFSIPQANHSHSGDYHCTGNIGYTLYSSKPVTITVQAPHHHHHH

B1: GpH7-A5/GpH7-B3 variant H268_14T/GpL16-k0 (antibody, human IgG1, kappa)
heavy 1: not shown
heavy 2: not shown
light: DIVMTQSPLSLPVTPGEPASISCQASESLVHSNRNTYLHWYLQKPGQSPQLLIYKVSNRFSGVPDRFSGSGSGTDFTLKISRVEAEDVGVYYCSQNTHVPPTFGQGTKVEIERTVAAPSVFIFPPSDEQLKSGTASVVCLLNNFYPREAKVQWKVDNALQSGNSQESVTEQDSKDSTYSLSSTLTLSKADYEKHKVYACEVTHQGLSSPVTKSFNRGEC
B2: GpH7-A5/GpH7-B3 variant Y300_19Q/GpL16-k0 (antibody, human IgG1, kappa)
heavy 1: not shown
heavy 2: not shown
light: B1 light
notes: He Ab; copies: 1 + 1 + 2
B3: GpH7-A5/GpH7-B3 variant D270_14T/GpL16-k0 (antibody, human IgG1, kappa)
heavy 1: not shown
heavy 2: not shown
light: B1 light
B4: GpH7-A5/GpH7-B3 variant Y300_13S/GpL16-k0 (antibody, human IgG1, kappa)
heavy 1: not shown
heavy 2: not shown
light: B1 light
notes: He Ab; copies: 1 + 1 + 2
B5: GpH7-A5/GpH7-B3 variant H268_02A/GpL16-k0 (antibody, human IgG1, kappa)
heavy 1: not shown
heavy 2: not shown
light: B1 light
B6: GpH7-A5/GpH7-B3 variant G236_02A/GpL16-k0 (antibody, human IgG1, kappa)
heavy 1: not shown
heavy 2: not shown
light: B1 light
B7: GpH7-A5/GpH7-B3 variant E269_01G/GpL16-k0 (antibody, human IgG1, kappa)
heavy 1: not shown
heavy 2: not shown
light: B1 light
B8: GpH7-A5/GpH7-B3 variant H268_04F/GpL16-k0 (antibody, human IgG1, kappa)
heavy 1: not shown
heavy 2: not shown
light: B1 light
B9: GpH7-A5/GpH7-B3 variant Y300_10E/GpL16-k0 (antibody, human IgG1, kappa)
heavy 1: not shown
heavy 2: not shown
light: B1 light
notes: He Ab; copies: 1 + 1 + 2
B10: GpH7-A5/GpH7-B3 variant E269_09D/GpL16-k0 (antibody, human IgG1, kappa)
heavy 1: not shown
heavy 2: not shown
light: B1 light
B11: GpH7-A5/GpH7-B3 variant D270_08L/GpL16-k0 (antibody, human IgG1, kappa)
heavy 1: not shown
heavy 2: not shown
light: B1 light
B12: GpH7-A5/GpH7-B3 variant Y300_14T/GpL16-k0 (antibody, human IgG1, kappa)
heavy 1: not shown
heavy 2: not shown
light: B1 light
notes: He Ab; copies: 1 + 1 + 2
B13: GpH7-A5/GpH7-B3 variant Y300_16H/GpL16-k0 (antibody, human IgG1, kappa)
heavy 1: not shown
heavy 2: not shown
light: B1 light
notes: He Ab; copies: 1 + 1 + 2
B14: GpH7-A5/GpH7-B3 variant H268_01G/GpL16-k0 (antibody, human IgG1, kappa)
heavy 1: not shown
heavy 2: not shown
light: B1 light
B15: GpH7-A5/GpH7-B3 variant G236_20W/GpL16-k0 (antibody, human IgG1, kappa)
heavy 1: not shown
heavy 2: not shown
light: B1 light
B16: GpH7-A5/GpH7-B3 variant E269_13S/GpL16-k0 (antibody, human IgG1, kappa)
heavy 1: not shown
heavy 2: not shown
light: B1 light
B17: GpH7-A5/GpH7-B3 variant G236_09D/GpL16-k0 (antibody, human IgG1, kappa)
heavy 1: not shown
heavy 2: not shown
light: B1 light
B18: GpH7-A5/GpH7-B3 variant Y300_08L/GpL16-k0 (antibody, human IgG1, kappa)
heavy 1: not shown
heavy 2: not shown
light: B1 light
notes: He Ab; copies: 1 + 1 + 2
B19: GpH7-A5/GpH7-B3 variant H268_03V/GpL16-k0 (antibody, human IgG1, kappa)
heavy 1: not shown
heavy 2: not shown
light: B1 light
B20: GpH7-A5/GpH7-B3 variant E269_02A/GpL16-k0 (antibody, human IgG1, kappa)
heavy 1: not shown
heavy 2: not shown
light: B1 light
B21: GpH7-A5/GpH7-B3 variant Y300_18N/GpL16-k0 (antibody, human IgG1, kappa)
heavy 1: not shown
heavy 2: not shown
light: B1 light
notes: He Ab; copies: 1 + 1 + 2
B22: GpH7-A5/GpH7-B3 variant Y300_09D/GpL16-k0 (antibody, human IgG1, kappa)
heavy 1: not shown
heavy 2: not shown
light: B1 light
notes: He Ab; copies: 1 + 1 + 2
B23: GpH7-A5/GpH7-B3 variant D270_10E/GpL16-k0 (antibody, human IgG1, kappa)
heavy 1: not shown
heavy 2: not shown
light: B1 light
B24: GpH7-A5/GpH7-B3 variant G236_10E/GpL16-k0 (antibody, human IgG1, kappa)
heavy 1: not shown
heavy 2: not shown
light: B1 light
B25: GpH7-A5/GpH7-B3 variant E269_14T/GpL16-k0 (antibody, human IgG1, kappa)
heavy 1: not shown
heavy 2: not shown
light: B1 light
B26: GpH7-A5/GpH7-B3 variant Y300_07I/GpL16-k0 (antibody, human IgG1, kappa)
heavy 1: not shown
heavy 2: not shown
light: B1 light
notes: He Ab; copies: 1 + 1 + 2
B27: GpH7-A5/GpH7-B3 variant Y300_11K/GpL16-k0 (antibody, human IgG1, kappa)
heavy 1: not shown
heavy 2: not shown
light: B1 light
notes: He Ab; copies: 1 + 1 + 2
B28: GpH7-A5/GpH7-B3 variant Y300_20W/GpL16-k0 (antibody, human IgG1, kappa)
heavy 1: not shown
heavy 2: not shown
light: B1 light
notes: He Ab; copies: 1 + 1 + 2
B29: GpH7-A5/GpH7-B3 variant G236_13S/GpL16-k0 (antibody, human IgG1, kappa)
heavy 1: not shown
heavy 2: not shown
light: B1 light

How the values were obtained:
[1] = target: T1, FcγRIIa(H) extracellular domain, …; assay: SPR, vs GpH7-A5/GpH7-B3/GpL16-k0 =100
[2] = target: T4, FcγRIIIa extracellular domain, His-tagged (human, UniProt P08637 17-208); assay: SPR, vs GpH7-A5/GpH7-B3/GpL16-k0 =100
T4 construct: extracellular domain; also called 3a
T4 sequence (P08637 other isoform, or with tags, fused parts or gaps): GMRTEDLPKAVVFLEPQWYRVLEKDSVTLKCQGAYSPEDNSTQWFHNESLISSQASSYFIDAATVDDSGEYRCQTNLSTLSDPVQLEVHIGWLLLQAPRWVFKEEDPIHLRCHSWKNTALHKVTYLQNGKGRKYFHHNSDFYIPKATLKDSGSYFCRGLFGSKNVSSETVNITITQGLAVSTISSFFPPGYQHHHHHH

[3] = target: T2, FcγRIIa(R) extracellular domain, …; assay: SPR, vs GpH7-A5/GpH7-B3/GpL16-k0 =100
[4] = target: T3, FcγRIIb extracellular domain, His-tagged; assay: SPR, vs GpH7-A5/GpH7-B3/GpL16-k0 =100
[5] = target: T5, FcγRIa extracellular domain, His-tagged (human, UniProt P12314 16-292); assay: SPR, vs GpH7-A5/GpH7-B3/GpL16-k0 =100
T5 construct: extracellular domain; also called 1a
T5 sequence (P12314 other isoform, or with tags, fused parts or gaps): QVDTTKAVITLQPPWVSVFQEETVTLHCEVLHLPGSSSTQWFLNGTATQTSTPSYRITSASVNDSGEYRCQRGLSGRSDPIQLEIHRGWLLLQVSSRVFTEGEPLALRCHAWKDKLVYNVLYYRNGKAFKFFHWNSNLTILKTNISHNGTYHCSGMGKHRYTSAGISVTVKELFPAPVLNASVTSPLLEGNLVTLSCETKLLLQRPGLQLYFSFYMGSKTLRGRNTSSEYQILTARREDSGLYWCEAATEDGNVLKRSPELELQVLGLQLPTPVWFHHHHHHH

[6] = target: T6, FcγRIIIa extracellular domain, C-terminal His tag (human, UniProt P08637 17-208); assay: SPR, binding activity relative to GpH7-A5/GpH7-B3/GpL16-k0 (=100)
T6 construct: extracellular domain; also called 3a
T6 sequence (P08637 other isoform, or with tags, fused parts or gaps): as the sequence (P08637 other isoform, or with tags, fused parts or gaps) above

Binder | He/Con 2aH [1] | He/Con 3a [2] | He/Con 2aR [3] | He/Con 2b [4] | He/Con 1a [5] | He/Con 3a [6]
B1 | 93.5 % of control | 90.3 % of control | 100 % of control | 90.3 % of control | 108 % of control | 
B2 |  |  |  |  |  | 105%
B3 | 81.3 % of control | 55.4 % of control | 72.2 % of control | 54.8 % of control | 89.5 % of control | 
B4 |  |  |  |  |  | 80.3%
B5 | 115 % of control | 121 % of control | 143 % of control | 175 % of control | 105 % of control | 
B6 | 145 % of control | 77 % of control | 145 % of control | 101 % of control | 99.1 % of control | 
B7 | 72.3 % of control | 61.6 % of control | 70.3 % of control | 54.1 % of control | 101 % of control | 
B8 | 112 % of control | 96 % of control | 105 % of control | 94.2 % of control | 103 % of control | 
B9 |  |  |  |  |  | 113%
B10 | 105 % of control | 106 % of control | 113 % of control | 110 % of control | 103 % of control | 
B11 | 81.8 % of control | 65.1 % of control | 62.8 % of control | 50.8 % of control | 93.2 % of control | 
B12 |  |  |  |  |  | 92.8%
B13 |  |  |  |  |  | 102%
B14 | 100 % of control | 95.7 % of control | 134 % of control | 151 % of control | 104 % of control | 
B15 | 153 % of control | 126 % of control | 77.3 % of control | 60.7 % of control | 104 % of control | 
B16 | 70.7 % of control | 62.1 % of control | 65.8 % of control | 50.2 % of control | 99.8 % of control | 
B17 | 93.5 % of control | 66.2 % of control | 105 % of control | 174 % of control | 95.5 % of control | 
B18 |  |  |  |  |  | 114%
B19 | 100 % of control | 91.4 % of control | 117 % of control | 120 % of control | 103 % of control | 
B20 | 78.7 % of control | 68 % of control | 70.2 % of control | 52.4 % of control | 101 % of control | 
B21 |  |  |  |  |  | 96%
B22 |  |  |  |  |  | 104%
B23 | 111 % of control | 112 % of control | 85.7 % of control | 72.5 % of control | 104 % of control | 
B24 | 116 % of control | 65.8 % of control | 124 % of control | 115 % of control | 92.6 % of control | 
B25 | 70.3 % of control | 59.7 % of control | 71 % of control | 53.2 % of control | 102 % of control | 
B26 |  |  |  |  |  | 103%
B27 |  |  |  |  |  | 63.7%
B28 |  |  |  |  |  | 101%
B29 | 140 % of control | 60.3 % of control | 135 % of control | 101 % of control | 96 % of control | 
